Reference: article PMC10471174

Target: T1, purified human SAP30 protein (GST removed) (human), O75446
T1 chain: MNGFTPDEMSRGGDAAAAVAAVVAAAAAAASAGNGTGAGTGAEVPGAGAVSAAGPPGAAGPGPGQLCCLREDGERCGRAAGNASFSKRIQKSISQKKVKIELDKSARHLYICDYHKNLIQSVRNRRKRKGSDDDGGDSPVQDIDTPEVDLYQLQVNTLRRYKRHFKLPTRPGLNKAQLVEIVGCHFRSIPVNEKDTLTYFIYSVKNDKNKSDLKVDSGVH
Experiment: SDS-PAGE under non-reducing conditions; purified SAP30 (GST removed) treated with or without β-mercaptoethanol and boiling; Coomassie staining and immunoblot
Conditions: remark: other sources report otherwise

stoichiometry N: 2
B1: purified human SAP30 protein (GST removed), O75446 1-220 (natural protein)
chain: MNGFTPDEMSRGGDAAAAVAAVVAAAAAAASAGNGTGAGTGAEVPGAGAVSAAGPPGAAGPGPGQLCCLREDGERCGRAAGNASFSKRIQKSISQKKVKIELDKSARHLYICDYHKNLIQSVRNRRKRKGSDDDGGDSPVQDIDTPEVDLYQLQVNTLRRYKRHFKLPTRPGLNKAQLVEIVGCHFRSIPVNEKDTLTYFIYSVKNDKNKSDLKVDSGVH
